Data on three molecules can be found in publication PMC8533620, “The Role of the C-Terminal Lysine of S100P in S100P-Induced Cell Migration and Metastasis” (Biomolecules, 2021).

Positions count from the first letter of the chain named. In names and notes the source's numbering stands. Several values for one entry are separate records, joined by “and”; a condition that tells them apart may be missing. Equal entries are not always repeated.

T1: recombinant protein consisting of the 149 C-terminal amino acids of NMMIIA (UniProt P35579 1812-1960)
T1 construct: non-muscle myosin heavy chain isoform IIA (NMMIIA), the 149 C-terminal amino acids; also called rNMMIIA; recombinant C-terminal fragment of non-muscle myosin II heavy chain; source: recombinant
T1 sequence (looked up): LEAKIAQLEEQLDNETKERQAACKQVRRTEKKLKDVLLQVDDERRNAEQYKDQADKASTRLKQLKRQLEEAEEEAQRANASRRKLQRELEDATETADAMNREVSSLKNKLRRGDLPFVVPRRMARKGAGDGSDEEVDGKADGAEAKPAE

B1: ΔK95 mutant recombinant S100P protein (natural protein, human, UniProt P25815 1-95, looked up)
chain: MTELETAMGMIIDVFSRYSGSEGSTQTLTKGELKVLMEKELPGFLQSGKDKDAVDKLLKDLDANGDAQVDFSEFIVFVAAITSACHKYFEKAGL
notes: S100P, human, with the C-terminal lysine (K95) deleted, so that the chain ends with leucine 94; Identity confirmed by mass spectrometry; also called ΔK95 S100P; ΔK95 mutant rS100P; source: recombinant protein from pET15b vector after site-directed mutagenesis; details in Supplementary Methods S1
B2: wild-type recombinant S100P protein (natural protein, human, UniProt P25815 1-95, looked up)
chain: MTELETAMGMIIDVFSRYSGSEGSTQTLTKGELKVLMEKELPGFLQSGKDKDAVDKLLKDLDANGDAQVDFSEFIVFVAAITSACHKYFEKAGLK
notes: S100P, human, 95-amino-acid monomer; cDNA encoding the wild-type protein in pET15b; primers on GenBank NM_005980 run from the ATG (95) to the stop codon (382); also called rS100P; wild-type rS100P; source: recombinant protein from a cDNA in pET15b vector; details in Supplementary Methods S1
B3: K95A mutant recombinant S100P protein (natural protein, human, UniProt P25815 1-95, looked up)
chain: B2 chain with K95A
notes: S100P, human, 95 amino acids, with the C-terminal lysine replaced by alanine; Identity confirmed by mass spectrometry; also called K95A S100P; K95A mutant rS100P; source: recombinant protein from pET15b vector after site-directed mutagenesis; details in Supplementary Methods S1

The assay has as its target T1, recombinant protein consisting of the …. The assay is described as follows: resonant mirror biosensor (IAsys); rNMMIIA immobilised, rS100P variants in solution; dual-channel IAsys resonant mirror biosensor; association and dissociation curves fitted a single-site model at least as well as a two-site model; equilibrium and kinetic Kd. As to conditions: both partners purified.
With B1, the Kd (commonly a measure of binding affinity in units of concentration) was 2700 nM and 6000 nM. The value for B2 was 370 to 470 nM; that for B3 was 2300 nM and 4100 nM.
